Measured values published in patent US20220281980A1 (Bristol-Myers Squibb, published 2022).
Each block holds one binder with its values, some of them ahead of it.

What was measured:
[1] = target: T1, human MICA/B endogenously expressed on SW480 cells (human, UniProt Q29983 24-383); experiment: Scatchard analysis, 125I-MICA.36 on SW480 cells; SW480 cells (FIG. 7G)
T1 construct: whole, on cells
T1 sequence (looked up): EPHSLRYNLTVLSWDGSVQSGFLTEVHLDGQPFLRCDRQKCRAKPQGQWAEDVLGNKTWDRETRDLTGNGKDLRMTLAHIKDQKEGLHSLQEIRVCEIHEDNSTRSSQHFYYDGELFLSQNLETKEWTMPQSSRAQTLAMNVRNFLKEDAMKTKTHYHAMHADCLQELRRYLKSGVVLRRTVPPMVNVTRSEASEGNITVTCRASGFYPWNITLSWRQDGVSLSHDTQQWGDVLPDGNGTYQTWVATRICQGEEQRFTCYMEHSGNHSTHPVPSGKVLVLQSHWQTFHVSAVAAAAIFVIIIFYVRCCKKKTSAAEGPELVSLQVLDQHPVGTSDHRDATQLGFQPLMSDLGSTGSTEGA
Procedure: (§1) Nonspecific binding was determined by binding in the presence of a titration of a 100 fold molar excess of unlabeled antibody and was subtracted from total counts per minute (CPM) to calculate specific binding. A linear standard curve of ¹²⁵I-MICA.36 concentration versus CPM was used to extrapolate specific activity, maximal nM bound ¹²⁵I-MICA.36 and thereby calculate receptor number per cell.
(§2) Specific activity of the iodinated MICA.36 was determined by plotting antibody titrations against the associated CPMs in a standard curve (FIG. 7A). The specific activity was calculated to be 164,214 CPM in 1 nM of ¹²⁵I-MICA.36. The number of receptors per cell was calculated by the following equation: (Bmax)×(Avogadro's number)×(Assay Volume)/# of cells per well.

[2] = target: T2, human MICA/B endogenously expressed on 786-O cells (MICA allele *008) (human, UniProt Q29983 24-331); experiment: saturation binding of 125I-labelled antibody on 786-O cells, 50,000 cells/well (Scatchard analysis); unit from the x axis 'nM Antibody'
T2 construct: it speaks of MICA/B, so MICB may be present as well; also called 786-0
T2 chain: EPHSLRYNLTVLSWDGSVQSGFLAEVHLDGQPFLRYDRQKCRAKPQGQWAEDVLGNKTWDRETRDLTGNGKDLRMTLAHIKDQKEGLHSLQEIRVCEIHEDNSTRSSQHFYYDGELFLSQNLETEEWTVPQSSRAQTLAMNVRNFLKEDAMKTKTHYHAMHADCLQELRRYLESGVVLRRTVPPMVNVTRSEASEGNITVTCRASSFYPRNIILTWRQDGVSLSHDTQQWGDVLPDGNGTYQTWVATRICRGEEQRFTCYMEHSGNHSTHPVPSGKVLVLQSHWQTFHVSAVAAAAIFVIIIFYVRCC
Procedure: as §1, §2

[3] = target: T2, human MICA/B endogenously expressed on …; experiment: saturation binding of 125I-labelled antibody on 786-O cells, 50,000 cells/well; fit of total binding, non-specific binding not subtracted
Procedure: as §1

[4] = target: T3, cynomolgus monkey MICA/B clone #6 expressed on CHO cells (cynomolgus monkey); experiment: saturation binding of 125I-labelled antibody on CHO-MICA Cyno #6 cells, 25K per well; fit of total binding, non-specific binding not subtracted
T3 construct: whole, on cells; also called cyno#6; CHO-cyno MICA clone #6
Procedure: as §1, §2

[5] = target: T4, human MICA*008 expressed on CHO cells (human, UniProt Q29983 24-331); experiment: saturation binding of 125I-labelled antibody on CHO-MICA*008 cells, 12,500 cells/well; fit of total binding, non-specific binding not subtracted
T4 construct: also called MICA allele 008
T4 chain: T2 chain
Procedure: as §1, §2

[6] = target: T5, human MICB expressed on transduced cells (human, UniProt Q29980 23-382); experiment: saturation binding of 125I-labelled antibody on CHO-MICB cells, 12500 per well (Scatchard analysis); x axis 'Ab' carries no unit, nM taken from paragraph 587
T5 construct: also called MICB*005
T5 chain: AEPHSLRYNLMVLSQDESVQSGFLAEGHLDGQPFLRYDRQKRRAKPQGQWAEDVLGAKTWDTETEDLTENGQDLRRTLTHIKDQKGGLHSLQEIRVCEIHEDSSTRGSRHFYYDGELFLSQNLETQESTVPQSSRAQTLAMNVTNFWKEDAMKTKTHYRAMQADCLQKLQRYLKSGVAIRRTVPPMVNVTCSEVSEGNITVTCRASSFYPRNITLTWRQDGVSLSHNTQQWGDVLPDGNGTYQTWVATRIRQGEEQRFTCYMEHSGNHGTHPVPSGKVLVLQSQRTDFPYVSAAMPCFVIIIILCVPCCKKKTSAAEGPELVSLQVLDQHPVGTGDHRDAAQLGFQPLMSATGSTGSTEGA
Procedure: as §1, §2

[7] = target: T5, human MICB expressed on transduced cells; experiment: saturation binding of 125I-labelled antibody on CHO-MICB cells, 12500 per well; fit of total binding, non-specific binding not subtracted; x axis without unit
Procedure: as §1, §2

[8] = target: T1, human MICA/B endogenously expressed on …; experiment: saturation binding of 125I-labelled antibody on SW480 cells, 25,000 cells/well; fit of total binding, non-specific binding not subtracted; x axis without unit
Procedure: as §1, §2

[9] = target: T6, cynomolgus monkey MICA/B clone #4 expressed on CHO cells (cynomolgus monkey); experiment: saturation binding of 125I-labelled antibody on CHO-MICA Cyno #4 cells, 25K per well (Scatchard analysis); unit from the x axis 'nM Radioligand'; curve not saturated at 20 nM
T6 construct: whole, on cells; also called cyno#4; CHO-cyno MICA clone #4
Procedure: as §1, §2

[10] = target: T3, cynomolgus monkey MICA/B clone #6 …; experiment: flow cytometry (GMFI, FACSCalibur), CHO cells with cyno MICA #6; unit from the x axis; curve from about 1500 at 0.1 ug/ml to about 40500 GMFI at 40 ug/ml
[11] = target: T6, cynomolgus monkey MICA/B clone #4 …; experiment: flow cytometry (GMFI, FACSCalibur), CHO cells with cyno MICA #4; unit from the x axis; curve from about 13000 at 0.1 ug/ml to about 94500 GMFI at 40 ug/ml

Kd [1]: ~0.4 nM | Kd [2]: 0.356 nM | Kd of the total-binding curve [3]: 0.6 nM | Kd of the total-binding curve [4]: 8.27 nM | Kd of the total-binding curve [5]: 1.24 nM | Kd [6]: 1.36 nM | Kd of the total-binding curve [7]: 2.8 nM | Kd of the total-binding curve [8]: 0.871 nM | Kd [9]: 11 nM
B1: MICA.36 (antibody, V domains shown)
VH: QVQLVESGGGVVQPGRSLRLSCAASGFTFSNYAMHWVRQAPGEGLEWVALIWYDGSNKFYGDSVKGRFTISRDNSKNTLYLQMNSLSAEDTAVYYCAREGSGHYWGQGTLVTVSS
VL: AIQLTQSPSSLSASVGDRVTITCRASQGISSALAWYQQKPGKVPKSLIYDASSLESGVPSRFSGSGSGTDFTLTISSLQPEDFATYYCQQFNSYPITFGQGTRLEIK
notes: it says that the name implies no specific constant region; Radioiodinated in the Scatchard assay; also called MICA.36 antibody

EC50 [10]: 3.3 µg/mL | EC50 [11]: 0.161 µg/mL
B2: 19G6 (antibody, V domains shown)
VH: B1 VH
VL: B1 VL
notes: Hybridoma antibody from human IgG transgenic mice, parent of MICA.36; also called 19G6 mAb; hybridoma 19G6
